Data published in IntAct's records for PubMed 9488481.

B1: Death-associated protein kinase 3 (Mus musculus), O54784 (parent)
chain: MSTFRQEDVEDHYEMGEELGSGQFAIVRKCQQKGTGMEYAAKFIKKRRLPSSRRGVSREEIEREVSILREIRHPNIITLHDVFENKTDVVLILELVSGGELFDFLAEKESLTEDEATQFLKQILDGVHYLHSKRIAHFDLKPENIMLLDKHAASPRIKLIDFGIAHRIEAGSEFKNIFGTPEFVAPEIVNYEPLGLEADMWSIGVITYILLSGASPFLGETKQETLTNISAVNYDFDEEYFSSTSELAKDFIRRLLVKDPKRRMTIAQSLEHSWIKVRRREDGARKPERRRLRAARLREYSLKSHSSMPRNTSYASFERFSRVLEDVAAAEQGLRELQRGRRQCRERVCALRAAAEQREARCRDGSAGLGRDLRRLRTELGRTEALRTRAQEEARAALLGAGGLKRRLCRLENRYDALAAQVAAEVQFVRDLVRALEQERLQAECGVR
partner: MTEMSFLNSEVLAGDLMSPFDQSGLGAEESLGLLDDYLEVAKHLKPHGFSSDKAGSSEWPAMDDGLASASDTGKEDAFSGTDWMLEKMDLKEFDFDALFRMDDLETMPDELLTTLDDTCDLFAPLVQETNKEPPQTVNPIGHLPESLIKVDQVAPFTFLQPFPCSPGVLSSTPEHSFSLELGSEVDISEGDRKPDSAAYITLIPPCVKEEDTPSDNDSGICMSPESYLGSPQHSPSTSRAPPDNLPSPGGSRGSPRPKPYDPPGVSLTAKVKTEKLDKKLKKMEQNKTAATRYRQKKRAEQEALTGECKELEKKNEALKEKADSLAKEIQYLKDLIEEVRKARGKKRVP

Variants of: B1
Details: with atf4_mouse Atf4, Q06507

Variant	effect of a mutation on the interaction
V422A;V429A;L436A	disrupting interaction
